# Assay results published in patent EP4810519A2.
# How the values were obtained:
# human CD3 (human) [1] = target: human CD3 (human) (UniProt P07766); experiment: Biacore; glofitamab formulations F2 and F5 after storage at 40°C, relative to initial
# human CD3 (human) [2] = target: human CD3 (human) (UniProt P07766); experiment: Biacore; glofitamab formulations F1, F3 and F4 after storage at 40°C, relative to initial
# Sequence of UniProt P07766 (P07766 23-126): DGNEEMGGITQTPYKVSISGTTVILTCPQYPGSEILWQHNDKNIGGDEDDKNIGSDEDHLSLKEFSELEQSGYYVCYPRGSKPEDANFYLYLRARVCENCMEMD
substance,measurement,setting,value
glofitamab (bispecific antibody),loss of CD3 binding,human CD3 (human) [1],< 50%
same,loss of CD3 binding,human CD3 (human) [2],10 to 20%
